In paper PMC9555771 (Science Advances, 2022):
Changes are numbered by the printed parent chain.

Experiments:
[1] = target: MsbA (WT), overexpressed in E. coli membranes and cells (Escherichia coli K-12, UniProt P60752); test: DEER
[2] = target: Avi-tagged full-length MsbA, biotinylated, detergent-solubilized (Escherichia coli (K-12 sequence), UniProt P60752, biotin on the Avi-tag (enzymatic, BirA)); test: grating-coupled interferometry
[3] = target: T1, MsbA (WT), purified, His tag cleaved (Escherichia coli K-12); test: cryo-EM structure
T1 chain: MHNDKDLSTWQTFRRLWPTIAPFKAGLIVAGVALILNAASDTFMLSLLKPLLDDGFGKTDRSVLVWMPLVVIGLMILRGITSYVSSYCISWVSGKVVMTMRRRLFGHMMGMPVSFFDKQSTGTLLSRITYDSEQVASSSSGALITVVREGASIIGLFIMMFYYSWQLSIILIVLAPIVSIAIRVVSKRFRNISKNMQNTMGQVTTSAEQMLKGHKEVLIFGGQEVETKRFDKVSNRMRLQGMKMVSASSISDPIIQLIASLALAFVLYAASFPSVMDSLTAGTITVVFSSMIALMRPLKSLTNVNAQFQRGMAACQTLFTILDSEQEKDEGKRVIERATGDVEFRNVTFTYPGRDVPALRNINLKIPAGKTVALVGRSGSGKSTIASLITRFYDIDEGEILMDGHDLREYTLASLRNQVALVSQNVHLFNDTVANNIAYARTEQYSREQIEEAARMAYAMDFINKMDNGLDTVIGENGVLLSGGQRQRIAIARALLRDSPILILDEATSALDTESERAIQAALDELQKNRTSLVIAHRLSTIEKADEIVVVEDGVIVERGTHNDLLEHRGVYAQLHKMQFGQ

Measured: binding result

B1: Nb_MsbA#1_A60C labeled with Gd-DOTA (VHH)
VHH: QMQLVESGGGLVQAGGSLRLSCAVSGSIFSIITLAWYRQAPGKPRENVATITRGSRTSYCDSVKGRFTISKDNAKSTVYLQMNKLKPEDTADYYCNAEGPAGYWGQGTPVTVS
binds: [1] | [2] | [3]

B2: Nb_MsbA#1_T68C labeled with Gd-DOTA (VHH)
VHH: B1 VHH with C60A, T68C
binds: [1] | [2] | [3]
